Data on 4 molecules can be found in patent publication US20090130710A1, “Enhancing vegetative protein production in transgenic plants using seed specific promoters” (priority 2005, published 2009).

For series [1], the system named is tobacco leaves co-expressing Arc-IDUA/ABI3 or Arc-IDUA-KDEL/ABI3. Description: Western blot of α-L-iduronidase protein in tobacco co-transformant leaves. Format: cell-based. To be noted: day 6 of incubation; Arc-IDUA/ABI3 and Arc-IDUA-KDEL/ABI3 leaves. As for the experimental part: FIG. 9. Western blot showing the effects of ABA at different concentrations of the levels of human α-L-iduronidase protein at day 6 of incubation. As with the activity data (FIG. 7), leaves of selected tobacco co-transformants (plants co-expressing constructs a and c [Arc-IDUA/ABI3] and plants co-expressing constructs a and d [Arc-IDUA-KDEL/ABI3]) incubated for 6 days in increasing concentrations of S(+)-ABA, show the maximum α-L-iduronidase protein accumulation levels at 150 μM S(+)-ABA.
On the technique in general: In western blotting, separated proteins are transferred to a membrane and probed.

For series [2] the test system is unchanged. Nature of the series: Northern blot analysis of α-L-iduronidase mRNA in tobacco co-transformant leaves. The class given is cell-based. The note with it: 100 μM S(+)-ABA, 6 days, compared to leaves in culture without ABA. The text has this: FIG. 8. ABA acts at the transcriptional level to enhance the levels of human α-L-iduronidase.
Series [3] concerns transgenic tobacco leaves co-expressing ABI3 and α-L-iduronidase. Description: IDUA activity in leaves of tobacco co-transformants incubated on culture media with ABA or stress chemicals. The class given is cell-based. As for the experimental part:
FIG. 6. Use of ABA to enhance human α-L-iduronidase activity in plants co-expressing ABI3 and α-L-iduronidase.
FIG. 10. The effects of different treatments designed to enhance endogenous ABA levels on human α-L-iduronidase activities. Leaves of selected tobacco co-transformants (plants co-expressing constructs a and c [Arc-IDUA/ABI3] and plants co-expressing constructs a and d [Arc-IDUA-KDEL/ABI3]) were incubated for 6 days in media containing the following chemicals: (1) polyethylene glycol, PEG; (2) mM NaCl; (3) mM sucrose; (4) mM mannitol, or the leaves were kept on medium at 4 degrees celsius.
(§1) Stably transformed plants were cultured in magenta boxes at 25° C. and sub-cultured every 3 months. Healthy, fully expanded leaves from 4-week plants were used in the present study.

Series [4] relates to transgenic tobacco leaves co-expressing construct (a) (the CnABI3 gene) and construct (b) (encoding GUS). Nature of the series: GUS activity in transgenic tobacco leaves co-expressing CnABI3 and Vic-GUS. Format: cell-based. The note with it: increasing concentration of natural ABA up to 200 μM. As for the experimental part: FIG. 4. Effect of natural S-(+)-ABA on recombinant bacterial β-glucuronidase (GUS) activities in transgenic tobacco leaves co-expressing construct (a) (the CnABI3 gene) and construct (b) (encoding GUS). […] There is a greater enhancement of GUS activities, with an increasing concentration of natural ABA up to 200 μM.
Transgenic tobacco plants were also generated by co-expressing the CnABI3 gene (construct a) and a gene construct containing the bacterial GUS gene coding region linked to a seed storage protein gene promoter—the vicilin gene promoter (construct b of FIG. 3) (Jiang et al., 1995).
as §1

Series [5] deals with T1, α-L-iduronidase (IDUA) activity (Homo sapiens, UniProt P35475).
T1 construct: arcelin-5-I (ARC5-I) signal peptide of Phaseolus vulgaris (N); made in house; host or cells: transgenic Arabidopsis thaliana T3 seeds (wild type and cgl mutant)
T1 sequence (P35475 28-653): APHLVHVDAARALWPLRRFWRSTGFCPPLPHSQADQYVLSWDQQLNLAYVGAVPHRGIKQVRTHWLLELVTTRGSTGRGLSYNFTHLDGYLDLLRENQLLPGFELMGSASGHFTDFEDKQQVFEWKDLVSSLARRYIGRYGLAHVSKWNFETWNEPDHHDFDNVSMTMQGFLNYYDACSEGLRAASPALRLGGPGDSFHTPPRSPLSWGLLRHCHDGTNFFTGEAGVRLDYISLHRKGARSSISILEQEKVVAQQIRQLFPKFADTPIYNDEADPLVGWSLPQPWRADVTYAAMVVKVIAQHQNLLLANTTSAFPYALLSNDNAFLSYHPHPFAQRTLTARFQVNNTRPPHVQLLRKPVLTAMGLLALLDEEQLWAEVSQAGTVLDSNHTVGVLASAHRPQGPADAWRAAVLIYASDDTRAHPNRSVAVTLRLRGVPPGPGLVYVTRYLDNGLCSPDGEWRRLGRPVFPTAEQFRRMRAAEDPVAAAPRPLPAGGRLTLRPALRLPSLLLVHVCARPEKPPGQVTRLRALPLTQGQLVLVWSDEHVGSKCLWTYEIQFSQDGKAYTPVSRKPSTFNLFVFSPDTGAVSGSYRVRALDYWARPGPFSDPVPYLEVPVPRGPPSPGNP
Description: IDUA specific activity after purification from transgenic Arabidopsis seeds (4MU formation). The class given is biochemical. To be noted: for Units/mg (specific activity): units are nmoles 4MU formed per minute. The text has this:
Table 1. Specific activities of Arabidopsis-derived α-L-iduronidase following purification of the recombinant enzyme from T3 seeds using a modified three-column procedure developed for extraction from human liver (Clements et al., 1989).

[6] abbreviates: step Ab: combined elution fractions from antibody column.
The mark [7] stands for this setting: step BGel: combined elution fractions from Bio-Gel P100 column.
The mark [8] stands for this setting: step ConA: combined elution fractions from concanavalin A/Sepharose column.
Setting [9] is: step Crude: clarified lysate (lipid removed).

Regarding `CC1=CC(=O)CC(C)(C)[C@@]1(O)/C=C/C(C)=C\C(=O)O` [ABA, S-(+)-ABA], the “ABA concentration showing maximum α-L-iduronidase protein accumulation levels” value in series [1] came to 150 µM. In series [2], the “effect on steady-state mRNA levels encoding α-L-iduronidase” value is “enhanced steady-state mRNA levels”. In addition, in series [3] (6 days incubation in increasing concentrations, Arc-IDUA/ABI3 and Arc-IDUA-KDEL/ABI3 leaves), the “ABA concentration at which α-L-iduronidase activities reach a maximum” value is 150 µM. Moreover, in series [3] (ABA-treated leaves co-expressing ABI3 and IDUA-KDEL, 7 days of incubation), the “IDUA activities in leaves” value is ≤ 16,000 pmol min^−1 mg^−1. Moreover, the “enhancement of α-L-iduronidase activity versus transgenic control leaves (no ABA)” value in series [3] (S(+)-ABA at 80 μM, day 7 of incubation, leaves co-expressing constructs a and d (Arc-IDUA-KDEL/ABI3)) is on record as roughly 58 fold. The “effect on recombinant GUS activities” value in series [4] is “enhanced GUS activities”.

In the case of `[Cl-].[Na+]` [NaCl], the “effect on α-L-iduronidase activities of treatments designed to enhance endogenous ABA levels” value in series [3] (6 days incubation, compared to ABA control (150 μM S(+)-ABA), NaCl 240 mM or 300 mM) is “dramatic effectiveness in enhancing α-L-iduronidase activities”.

B1: IDUA derived from transgenic WT seeds: recombinant human α-L-iduronidase purified from transgenic Arabidopsis wild-type T3 seeds (protein, UniProt P35475 28-653, looked up)
Alpha-L-iduronidase: APHLVHVDAARALWPLRRFWRSTGFCPPLPHSQADQYVLSWDQQLNLAYVGAVPHRGIKQVRTHWLLELVTTRGSTGRGLSYNFTHLDGYLDLLRENQLLPGFELMGSASGHFTDFEDKQQVFEWKDLVSSLARRYIGRYGLAHVSKWNFETWNEPDHHDFDNVSMTMQGFLNYYDACSEGLRAASPALRLGGPGDSFHTPPRSPLSWGLLRHCHDGTNFFTGEAGVRLDYISLHRKGARSSISILEQEKVVAQQIRQLFPKFADTPIYNDEADPLVGWSLPQPWRADVTYAAMVVKVIAQHQNLLLANTTSAFPYALLSNDNAFLSYHPHPFAQRTLTARFQVNNTRPPHVQLLRKPVLTAMGLLALLDEEQLWAEVSQAGTVLDSNHTVGVLASAHRPQGPADAWRAAVLIYASDDTRAHPNRSVAVTLRLRGVPPGPGLVYVTRYLDNGLCSPDGEWRRLGRPVFPTAEQFRRMRAAEDPVAAAPRPLPAGGRLTLRPALRLPSLLLVHVCARPEKPPGQVTRLRALPLTQGQLVLVWSDEHVGSKCLWTYEIQFSQDGKAYTPVSRKPSTFNLFVFSPDTGAVSGSYRVRALDYWARPGPFSDPVPYLEVPVPRGPPSPGNP
modifications: made in Arabidopsis seeds
For B1, the “specific activity of the enzyme” value in series [5] (following chromatography on Bio-Gel P-100, purified from T3 seeds) was 14,700 nmol 4 MU/min/mg TSP. The “Units/mg (specific activity)” value in series [5] (setting [6]) is 9,033 Units/mg; in series [5] (setting [7]), 14,700 Units/mg; in series [5] (setting [8]), 29 Units/mg; in series [5] (setting [9]), 6.3 Units/mg.

B2: IDUA derived from transgenic cg/mutant seeds: recombinant human α-L-iduronidase purified from transgenic Arabidopsis cgl mutant seeds (N-acetylglucosaminyl transferase I deficient) (protein, UniProt P35475 28-653, looked up)
Alpha-L-iduronidase: APHLVHVDAARALWPLRRFWRSTGFCPPLPHSQADQYVLSWDQQLNLAYVGAVPHRGIKQVRTHWLLELVTTRGSTGRGLSYNFTHLDGYLDLLRENQLLPGFELMGSASGHFTDFEDKQQVFEWKDLVSSLARRYIGRYGLAHVSKWNFETWNEPDHHDFDNVSMTMQGFLNYYDACSEGLRAASPALRLGGPGDSFHTPPRSPLSWGLLRHCHDGTNFFTGEAGVRLDYISLHRKGARSSISILEQEKVVAQQIRQLFPKFADTPIYNDEADPLVGWSLPQPWRADVTYAAMVVKVIAQHQNLLLANTTSAFPYALLSNDNAFLSYHPHPFAQRTLTARFQVNNTRPPHVQLLRKPVLTAMGLLALLDEEQLWAEVSQAGTVLDSNHTVGVLASAHRPQGPADAWRAAVLIYASDDTRAHPNRSVAVTLRLRGVPPGPGLVYVTRYLDNGLCSPDGEWRRLGRPVFPTAEQFRRMRAAEDPVAAAPRPLPAGGRLTLRPALRLPSLLLVHVCARPEKPPGQVTRLRALPLTQGQLVLVWSDEHVGSKCLWTYEIQFSQDGKAYTPVSRKPSTFNLFVFSPDTGAVSGSYRVRALDYWARPGPFSDPVPYLEVPVPRGPPSPGNP
modifications: made in Arabidopsis cgl mutant seeds
In the case of B2, the “Units/mg (specific activity)” value in series [5] (setting [6]) is given as 2,700 Units/mg; in series [5] (setting [7]), 7,800 Units/mg; in series [5] (setting [8]), 8 Units/mg; in series [5] (setting [9]), 2.04 Units/mg.
